Measurements: patent US20240383984A1 (Genentech, published 2024)

T1: human FcRH5 protein fragment (soluble) (human, UniProt Q96RD9 16-851)
T1 construct: whole entry named; also called soluble human FcRH5; Human FcRH5 (BIACORE analyte)
T1 sequence: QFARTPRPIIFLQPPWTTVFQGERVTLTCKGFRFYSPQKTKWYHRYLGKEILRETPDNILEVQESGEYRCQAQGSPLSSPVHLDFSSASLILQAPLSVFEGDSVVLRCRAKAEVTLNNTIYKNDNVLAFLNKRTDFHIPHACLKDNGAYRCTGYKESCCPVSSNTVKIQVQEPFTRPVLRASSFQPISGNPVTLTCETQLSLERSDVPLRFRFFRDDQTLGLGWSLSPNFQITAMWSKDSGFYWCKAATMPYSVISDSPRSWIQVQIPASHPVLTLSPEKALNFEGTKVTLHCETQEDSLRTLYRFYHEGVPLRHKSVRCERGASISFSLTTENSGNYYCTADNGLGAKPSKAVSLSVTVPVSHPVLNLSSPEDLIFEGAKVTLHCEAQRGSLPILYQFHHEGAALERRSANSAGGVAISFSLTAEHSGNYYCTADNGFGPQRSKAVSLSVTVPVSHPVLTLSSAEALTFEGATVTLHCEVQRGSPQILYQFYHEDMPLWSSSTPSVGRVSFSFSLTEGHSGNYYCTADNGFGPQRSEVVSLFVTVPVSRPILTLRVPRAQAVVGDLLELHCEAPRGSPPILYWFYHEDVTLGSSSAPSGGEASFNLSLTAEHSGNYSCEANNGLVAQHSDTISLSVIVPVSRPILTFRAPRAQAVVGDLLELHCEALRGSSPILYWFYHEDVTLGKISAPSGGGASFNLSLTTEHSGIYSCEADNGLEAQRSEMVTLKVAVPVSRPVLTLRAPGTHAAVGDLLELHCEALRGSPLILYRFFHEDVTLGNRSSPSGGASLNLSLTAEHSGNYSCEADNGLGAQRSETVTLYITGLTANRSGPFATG

T2: cynomolgus FcRH5 protein fragment (soluble) (cynomolgus monkey)
T2 construct: whole entry named; also called Cyno FcRH5 (BIACORE analyte)
T2 chain: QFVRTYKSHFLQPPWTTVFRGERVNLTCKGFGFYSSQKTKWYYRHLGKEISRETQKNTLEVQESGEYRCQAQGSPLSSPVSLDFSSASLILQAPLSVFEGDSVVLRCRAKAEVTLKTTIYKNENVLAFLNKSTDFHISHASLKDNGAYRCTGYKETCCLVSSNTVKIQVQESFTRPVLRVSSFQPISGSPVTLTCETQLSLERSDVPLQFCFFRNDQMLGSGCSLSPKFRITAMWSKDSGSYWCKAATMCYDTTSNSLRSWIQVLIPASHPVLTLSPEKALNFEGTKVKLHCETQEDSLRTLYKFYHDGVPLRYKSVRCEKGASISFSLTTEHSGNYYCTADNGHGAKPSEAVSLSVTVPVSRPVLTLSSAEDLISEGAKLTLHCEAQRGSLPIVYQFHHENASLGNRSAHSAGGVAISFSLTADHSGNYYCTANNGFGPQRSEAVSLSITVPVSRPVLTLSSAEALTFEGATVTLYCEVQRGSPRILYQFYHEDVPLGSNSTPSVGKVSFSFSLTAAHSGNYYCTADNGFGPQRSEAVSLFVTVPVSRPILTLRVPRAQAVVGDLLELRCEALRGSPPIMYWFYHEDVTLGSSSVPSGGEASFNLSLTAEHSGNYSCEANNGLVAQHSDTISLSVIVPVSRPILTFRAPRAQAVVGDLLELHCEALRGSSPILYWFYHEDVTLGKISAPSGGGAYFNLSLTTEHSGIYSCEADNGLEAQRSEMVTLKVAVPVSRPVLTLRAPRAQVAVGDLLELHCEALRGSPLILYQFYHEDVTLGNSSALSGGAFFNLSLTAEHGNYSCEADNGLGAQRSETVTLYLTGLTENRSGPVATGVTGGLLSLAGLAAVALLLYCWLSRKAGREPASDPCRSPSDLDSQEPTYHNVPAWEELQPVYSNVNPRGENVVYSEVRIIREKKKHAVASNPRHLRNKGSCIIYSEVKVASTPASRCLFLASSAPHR


Experiments:
[1] = biological target: T1, human FcRH5 protein fragment (soluble); assay: SPR, hIgG capture, 1:1 model
Method: (§1) Briefly, a human IgG capture surface was generated on a Series S CM5 chip using amine coupling and the human IgG capture kit (GE Life Sciences, Piscataway, NJ). Test antibodies were then captured on flow cells 2, 3, or 4, with flow cell 1 used as a reference. An FcRH5 protein fragment was used as the analyte, with a flow rate of […]. Between injections the capture surface was regenerated by a 30-second injection of 3M magnesium chloride or 10 mM glycine, pH 1.5. Interactions were assessed at 25° C. in 10 mM HEPES pH7.4, 150 mM NaCl, and 0.05% Tween 20 (HBSP). Reference data from the reference flow cell and from injection of buffer alone were subtracted prior to kinetic analysis. Kinetic information was calculated by fitting data to a 1:1 binding model. Reference subtraction and data fitting were performed using BIAevaluation software (GE Life Sciences, Piscataway, NJ).
(§2) Kinetic characterization experiments were carried out (see Table 8). In these experiments, binding of soluble FcRH5 protein fragment to purified antibodies in human TDB antibody format was analyzed at six different non-zero concentrations (a 1:3 dilution series, one concentration injected twice as a replicate). Flow rate was set at 40 μl/min and association and dissociation monitored for 600 s.

[2] = biological target: T2, cynomolgus FcRH5 protein fragment …; assay: SPR, hIgG capture, 1:1 model
Method: as §1, §2

Row | Kd [1] [nM] | koff [1] [s⁻¹] | kon [1] [M⁻¹ s⁻¹] | Kd [2] [nM] | koff [2] [s⁻¹] | kon [2] [M⁻¹ s⁻¹] | Binder
1 | 2.4 | 0.001 | 500000 | 6.3 | 0.0008 | 100000 | hu1G7.v1.4/38E4.v1 TDB (bispecific antibody, V domains shown, knob-into-hole TDB; also called 1G7.v1.4 TDB; 1G7.v1.4 (TDB format)) VH 1: EVQLVESGPGLVKPSETLSLTCTVSGFSLTRFGVHWVRQPPGKGLEWLGVIWRGGSTDYNAAFMSRLTISKDNSKNQVSLKLSSVTAADTAVYYCSNHYYGSSDYALDNWGQGTLVTVSS VL 1: DIQMTQSPSSLSASVGDRVTITCKASQDVRNLVVWFQQKPGKAPKLLIYSGSYRYSGVPSRFSGSGSGTDFTLTISSLQPEDFATYYCQQHYSPPYTFGQGTKVEIK VH 2: EVQLVQSGAEVKKPGASVKVSCKASGFTFTSYYIHWVRQAPGQGLEWIGWIYPENDNTKYNEKFKDRVTITADTSTSTAYLELSSLRSEDTAVYYCARDGYSRYYFDYWGQGTLVTVSS VL 2: DIVMTQSPDSLAVSLGERATINCKSSQSLLNSRTRKNYLAWYQQKPGQSPKLLIYWTSTRKSGVPDRFSGSGSGTDFTLTISSLQAEDVAVYYCKQSFILRTFGQGTKVEIK
2 | 2.4 | 0.001 | 400000 | 6.8 | 0.0008 | 100000 | 1G7.v85/38E4.v1 TDB (bispecific antibody, V domains shown, knob-into-hole TDB; also called 1G7.v85 TDB; 1G7.v85 (TDB format)) VH 1: EVQLVESGPGLVKPSETLSLTCTVSGFSLTRFGVHWVRQPPGKGLEWLGVIWRGGSTDYNAAFVSRLTISKDNSKNQVSLKLSSVTAADTAVYYCSNHYYGSSDYALDNWGQGTLVTVSS VL 1: DIQMTQSPSSLSASVGDRVTITCKASQDVRNLVVWFQQKPGKAPKLLIYSGSYRYSGVPSRFSGSGSGTDFTLTISSLQPEDFATYYCQQHYSPPYTFGQGTKVEIK VH 2: EVQLVQSGAEVKKPGASVKVSCKASGFTFTSYYIHWVRQAPGQGLEWIGWIYPENDNTKYNEKFKDRVTITADTSTSTAYLELSSLRSEDTAVYYCARDGYSRYYFDYWGQGTLVTVSS VL 2: DIVMTQSPDSLAVSLGERATINCKSSQSLLNSRTRKNYLAWYQQKPGQSPKLLIYWTSTRKSGVPDRFSGSGSGTDFTLTISSLQAEDVAVYYCKQSFILRTFGQGTKVEIK
